PMC5027247, “Structural insights into the interaction and disease mechanism of neurodegenerative disease-associated optineurin and TBK1 proteins” (Nature Communications, 2016)
Substitutions are numbered along the chain they refer to. Names may count otherwise.

B1: OPTN(26–103) (domain or fragment, human, UniProt Q96CV9 26-103, looked up)
chain: HLAHPNLDTFTPEELLQQMKELLTENHQLKEAMKLNNQAMKGRFEELSAWTEKQKEERQFFEIQSKEAKERLMALSHE
notes: Forms a dimer in the crystal of the complex with TBK1 CTD; also called short OPTN fragment; not shown: Trx-His6 (pET-32M) or GST (pET-GST), N-terminal, cleaved
B2: Trx-His-tagged TBK1 CTD (residues 677–729) (domain or fragment, human, UniProt Q9UHD2 677-729, looked up)
chain: YPSSNTLVEMTLGMKKLKEEMEGVVKELAENNHILERFGSLTMDGGLRNVDCL
notes: source: E. coli BL21 (DE3), purified (Ni-NTA, size-exclusion chromatography); not shown: Trx, N-terminal, kept; His6, N-terminal, kept
B3: TBK1 CTD (residues 677–729) (domain or fragment, human, UniProt Q9UHD2 677-729, looked up)
chain: B2 chain
notes: For the crystal with NAP1 TBD it was made as a NAP1(215–254)-TEV site-TBK1 CTD fusion that was cut with 3C and TEV; not shown: Trx-His6 (pET-32M) or GST (pET-GST), N-terminal, cleaved
B4: NAP1 TBD (residues 215–254) (domain or fragment, human, UniProt Q9H6S1 215-254, looked up)
chain: SSDNMQHAYWELKREMSNLHLVTQVQAELLRKLKTSTAIK
notes: For the crystal it was made as a NAP1(215–254)-TEV site-TBK1 CTD fusion that was cut with 3C and TEV; also called NAP1(215–254); not shown: Trx-His6 (pET-32M) or GST (pET-GST), N-terminal, cleaved
B5: TBK1 CTD(E696K) (domain or fragment, human, UniProt Q9UHD2 677-729, looked up)
chain: B2 chain with E20K
notes: also called TBK1 E696K mutant; not shown: Trx-His6 (pET-32M) or GST (pET-GST), N-terminal, cleaved
B6: OPTN(26–103) E50K (domain or fragment, human, UniProt Q96CV9 26-103, looked up)
chain: B1 chain with E25K
notes: not shown: Trx-His6 (pET-32M) or GST (pET-GST), N-terminal, cleaved
B7: OPTN(1–119) E50K mutant (domain or fragment, human, UniProt Q96CV9 1-119, looked up)
chain: MSHQPLSCLTEKEDSPSESTGNGPPHLAHPNLDTFTPEELLQQMKELLTKNHQLKEAMKLNNQAMKGRFEELSAWTEKQKEERQFFEIQSKEAKERLMALSHENEKLKEELGKLKGKSE
notes: as for B6

Columns and labels:
[1] = molecular target: the molecule itself; experiment: crystal structure; OPTN(26–103) or OPTN(26–103) E50K with TBK1 CTD; 0.1 M MES pH 6.0, 14% PEG 4000, 16 °C; 2.05 Å and 2.5 Å
[2] = molecular target: T1, GST-tagged OPTN(26–119) M44Q (human, UniProt Q96CV9 26-119, M44Q); experiment: pull-down; GST-tagged OPTN and Trx-His-tagged TBK1 mixed at 1:4, glutathione sepharose 4B beads; 50 mM Tris pH 7.5, 100 mM NaCl, 1 mM DTT, 1 mM EDTA; Coomassie or anti-His blot; conditions: both partners purified
T1 construct: source: E. coli BL21 (DE3), purified (glutathione sepharose 4B, size-exclusion chromatography); not shown: GST, N-terminal, kept

[3] = molecular target: T2, GST-tagged OPTN(26–119) L54Q (human, UniProt Q96CV9 26-119, L54Q); experiment: as above; conditions: both partners purified
T2 construct: source: E. coli BL21 (DE3), purified (glutathione sepharose 4B, size-exclusion chromatography); not shown: GST, N-terminal, kept

[4] = molecular target: T3, GST-tagged OPTN(26–119) L47Q (human, UniProt Q96CV9 26-119, L47Q); experiment: as above; conditions: both partners purified
T3 construct: source: E. coli BL21 (DE3), purified (glutathione sepharose 4B, size-exclusion chromatography); not shown: GST, N-terminal, kept

OPTN(26–119) E50K = molecular target: T4, OPTN(26–119) E50K (human, UniProt Q96CV9 26-119, E50K); experiment: ITC; 25 °C; 50 mM Tris pH 7.5, 100 mM NaCl, 1 mM EDTA, 1 mM DTT; 1 mM TBK1 fragment in the syringe, 0.1 mM OPTN or NAP1 fragment in the cell; one-site binding model; conditions: both partners purified
T4 construct: also called OPTN E50K mutant; not shown: Trx-His6 (pET-32M) or GST (pET-GST), N-terminal, cleaved

OPTN(26–119) = molecular target: T5, OPTN(26–119) (human, UniProt Q96CV9 26-119); experiment: as above; conditions: both partners purified
T5 construct: A Se-Met labelled form was used for the 2.5 Å crystal structure with TBK1 CTD; also called OPTN NTD; not shown: Trx-His6 (pET-32M) or GST (pET-GST), N-terminal, cleaved

OPTN(1–119) = molecular target: T6, OPTN(1–119) (human, UniProt Q96CV9 1-119); experiment: as above; conditions: both partners purified
T6 construct: not shown: Trx-His6 (pET-32M) or GST (pET-GST), N-terminal, cleaved

[5] = molecular target: the molecule itself; experiment: crystal structure; NAP1 TBD/TBK1 CTD complex made as a fusion through a TEV site and cut with 3C and TEV; 1% tryptone, 0.05 M HEPES pH 7.0, 12% PEG 3350, 16 °C; 1.5 Å
[6] = molecular target: B3; experiment: ITC; 25 °C; 50 mM Tris pH 7.5, 100 mM NaCl, 1 mM EDTA, 1 mM DTT; 1 mM TBK1 fragment in the syringe, 0.1 mM OPTN or NAP1 fragment in the cell; one-site binding model; conditions: both partners purified
TBK1 CTD(E696K) = molecular target: B5; experiment: as above; conditions: both partners purified
[7] = molecular target: the molecule itself; experiment: SEC-MALS; 100 μl at 20 μM on Superose 12 10/300 GL; 50 mM Tris-HCl, 100 mM NaCl, 1 mM DTT, 1 mM EDTA, pH 7.5

T6 sequence (Q96CV9 1-119): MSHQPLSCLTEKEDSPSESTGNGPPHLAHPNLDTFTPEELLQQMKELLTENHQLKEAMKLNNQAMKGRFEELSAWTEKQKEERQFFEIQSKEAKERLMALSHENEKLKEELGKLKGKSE

**Q.** Does B1 bind [1]?
**A.** Result: binds

**Q.** Does B2 bind [2]?
**A.** Result: binds

**Q.** Does B2 bind [3]?
**A.** Result: binds

**Q.** Does B2 bind [4]?
**A.** Result: binds

**Q.** Which “fold increase of binding affinity against the wild-type OPTN” value (OPTN(26–119) E50K) does the source give for B3 here?
**A.** The value was roughly 43 fold.

**Q.** What about the Kd (OPTN(26–119)) of the same binder?
**A.** Its Kd is roughly 2500 nM.

**Q.** What about the “stoichiometry N” value (OPTN(26–119)) of the same binder?
**A.** Its value is 1.15.

**Q.** What about the Kd (OPTN(1–119)) of the same binder?
**A.** The Kd was roughly 2500 nM.

**Q.** Does B3 bind [5]?
**A.** Result: binds

**Q.** How did the Kd [6] turn out when B4 was run?
**A.** The Kd was roughly 720 nM.

**Q.** Does B4 bind (TBK1 CTD(E696K))?
**A.** Result: binds

**Q.** B5 was tested. Which “stoichiometry N” value (OPTN(26–119)) did it give?
**A.** The value was 0.58.

**Q.** Does B6 bind [1]?
**A.** Result: binds

**Q.** How did the “stoichiometry N” value [7] turn out when B7 was run?
**A.** The value was 4.
